# Test results published in article PMC9187738.
# Assays:
# hamster JUNO (hamster) [1] = assay: live imaging-based adhesion molecule (LIAM) assay; BHK cells, non-inducible expression (cytomegalovirus promoter); separately transfected cells mixed in equal amounts 4 h after transfection, incubated 20 h, imaged every 6 min for 12 h at 40x, 37 °C, 5% CO2; read-outs: accumulation at the cell interface and translocation to the opposite cell, % of contacting cell pairs
# [2] = target: mouse mCherry-JUNO (mouse) (UniProt Q9EQF4); assay: as above
# human JUNO (human) = human JUNO (human) (UniProt A6ND01); assay: as above
# pig JUNO (pig) = assay: as above
# hamster JUNO (hamster) [3] = assay: live imaging-based adhesion molecule (LIAM) assay; HEK293T cells expressing IZUMO1 mixed with HEK293T cells expressing JUNO; read-out: accumulation at the interface of the cells, % of contacting cell pairs
# Chain of human JUNO (human) (A6ND01 20-228): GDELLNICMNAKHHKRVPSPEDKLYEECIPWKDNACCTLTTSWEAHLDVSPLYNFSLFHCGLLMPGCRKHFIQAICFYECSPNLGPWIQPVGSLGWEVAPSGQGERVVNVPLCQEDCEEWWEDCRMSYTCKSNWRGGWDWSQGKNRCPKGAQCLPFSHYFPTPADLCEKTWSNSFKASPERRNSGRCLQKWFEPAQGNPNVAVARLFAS
# Chain of mouse mCherry-JUNO (mouse) (Q9EQF4 20-222): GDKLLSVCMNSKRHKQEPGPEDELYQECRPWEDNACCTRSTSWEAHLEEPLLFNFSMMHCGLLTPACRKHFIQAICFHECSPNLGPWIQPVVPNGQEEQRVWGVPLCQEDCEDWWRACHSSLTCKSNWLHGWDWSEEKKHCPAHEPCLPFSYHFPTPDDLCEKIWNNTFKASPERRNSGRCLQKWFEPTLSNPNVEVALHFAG
# Chain of human IZUMO1 (Q8IYV9 22-350): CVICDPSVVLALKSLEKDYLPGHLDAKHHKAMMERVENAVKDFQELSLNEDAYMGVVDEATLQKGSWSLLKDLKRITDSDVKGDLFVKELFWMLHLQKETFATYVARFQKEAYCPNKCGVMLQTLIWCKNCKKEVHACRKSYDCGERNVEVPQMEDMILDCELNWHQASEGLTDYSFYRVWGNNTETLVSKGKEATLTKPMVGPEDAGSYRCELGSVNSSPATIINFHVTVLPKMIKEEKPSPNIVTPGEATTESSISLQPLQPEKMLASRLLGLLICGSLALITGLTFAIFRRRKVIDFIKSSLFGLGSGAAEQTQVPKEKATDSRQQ
IZUMO1 accumulation (% of contacting cell pairs) (hamster JUNO (hamster) [1]),IZUMO1 translocation (% of contacting cell pairs) (hamster JUNO (hamster) [1]),JUNO accumulation (% of contacting cell pairs) (hamster JUNO (hamster) [1]),JUNO translocation (% of contacting cell pairs) (hamster JUNO (hamster) [1]),IZUMO1 accumulation (% of contacting cell pairs) [2],JUNO accumulation (% of contacting cell pairs) [2],IZUMO1 accumulation (% of contacting cell pairs) (human JUNO (human)),IZUMO1 translocation (% of contacting cell pairs) (human JUNO (human)),JUNO accumulation (% of contacting cell pairs) (human JUNO (human)),JUNO translocation (% of contacting cell pairs) (human JUNO (human)),IZUMO1 accumulation (% of contacting cell pairs) (pig JUNO (pig)),IZUMO1 accumulation (% of contacting cell pairs) (hamster JUNO (hamster) [3]),JUNO accumulation (% of contacting cell pairs) (hamster JUNO (hamster) [3]),Substance
77%,44%,16%,28%,33%,25%,,,,,,,,hamster IZUMO1 (natural protein)
13%,,7.1%,,,,48%,3.2%,49%,32%,24%,,,pig IZUMO1 (natural protein)
,,,,,,,,,,,9.3%,2.8%,human IZUMO1 (from UniProt Q8IYV9 22-350) (natural protein)
